T1: human FcRIIB/C protein (MednaBio, E1034) (human, UniProt P31994 43-217, limits assumed)
T1 construct: Bought as FcRIIB/C; also called FcγRIIB; CD32B
T1 sequence (looked up): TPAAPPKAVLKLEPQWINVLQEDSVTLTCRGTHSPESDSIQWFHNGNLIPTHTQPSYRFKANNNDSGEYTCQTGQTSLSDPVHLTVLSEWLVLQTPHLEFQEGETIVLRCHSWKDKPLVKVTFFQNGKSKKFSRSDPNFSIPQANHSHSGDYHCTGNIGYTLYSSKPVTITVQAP

T2: human FcRIIA protein (MednaBio, E1033) (human, UniProt P12318 34-218, limits assumed)
T2 construct: Bought; also called FcγRIIA
T2 sequence (looked up): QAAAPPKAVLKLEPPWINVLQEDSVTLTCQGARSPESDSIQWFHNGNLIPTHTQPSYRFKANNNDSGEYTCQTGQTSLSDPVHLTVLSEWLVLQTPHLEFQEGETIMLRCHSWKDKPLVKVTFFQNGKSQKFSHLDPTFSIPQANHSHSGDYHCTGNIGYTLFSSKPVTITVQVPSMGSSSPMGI

T3: human FcγRIIA(R131) expressed on CHO cells (human, UniProt P12318 34-317)
T3 construct: whole, on cells
T3 sequence (looked up): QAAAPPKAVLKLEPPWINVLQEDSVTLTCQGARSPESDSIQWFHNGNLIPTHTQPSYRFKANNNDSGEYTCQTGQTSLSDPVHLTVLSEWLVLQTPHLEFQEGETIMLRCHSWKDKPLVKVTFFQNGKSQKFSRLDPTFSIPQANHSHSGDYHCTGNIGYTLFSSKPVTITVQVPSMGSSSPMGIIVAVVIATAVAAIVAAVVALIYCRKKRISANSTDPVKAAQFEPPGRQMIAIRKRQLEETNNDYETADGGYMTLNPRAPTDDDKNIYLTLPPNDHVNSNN

T4: human FcγRIIC expressed on CHO cells (human, UniProt P31995 43-323)
T4 construct: whole, on cells
T4 sequence (looked up): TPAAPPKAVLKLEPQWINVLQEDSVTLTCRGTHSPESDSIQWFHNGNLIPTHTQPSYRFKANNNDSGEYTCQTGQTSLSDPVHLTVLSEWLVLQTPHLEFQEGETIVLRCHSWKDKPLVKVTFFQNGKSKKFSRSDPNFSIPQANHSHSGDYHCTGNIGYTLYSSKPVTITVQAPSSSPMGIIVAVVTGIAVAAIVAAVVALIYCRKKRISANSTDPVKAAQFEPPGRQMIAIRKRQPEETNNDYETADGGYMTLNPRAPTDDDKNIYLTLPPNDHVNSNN

T5: human FcγRIIA(H131) expressed on CHO cells (human, UniProt P12318 34-317)
T5 construct: whole, on cells
T5 sequence (looked up): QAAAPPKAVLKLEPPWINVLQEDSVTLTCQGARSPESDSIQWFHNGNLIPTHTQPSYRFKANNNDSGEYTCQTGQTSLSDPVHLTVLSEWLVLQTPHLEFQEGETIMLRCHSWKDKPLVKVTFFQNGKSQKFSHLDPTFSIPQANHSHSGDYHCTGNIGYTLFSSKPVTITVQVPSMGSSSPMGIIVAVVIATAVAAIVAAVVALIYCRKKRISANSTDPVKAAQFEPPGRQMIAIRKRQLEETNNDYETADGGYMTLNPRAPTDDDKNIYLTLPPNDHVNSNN


Assays:
[1] = molecular target: T1, human FcRIIB/C protein (MednaBio, E1034); assay: BLI
Summary of the method: (§1)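 On an Octet Red96 System, anti-penta-HIS biosensors loaded with commercial human Fc receptor proteins were dipped into test IgG diluted 1:3 over 8 points from 300 nM. Fcγ receptor runs used pH 7.2 and FcRn runs used pH 6. Global fitting of these biolayer interferometry data gave the values for Kd, kon and koff, using a 1:1 binding model.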

[2] = molecular target: T2, human FcRIIA protein (MednaBio, E1033); assay: BLI
Summary of the method: as §1

[3] = molecular target: T6, human FcRIIIA-F158 protein (MednaBio, E1036) (human, UniProt P08637 17-208); assay: BLI
T6 construct: Bought; also called FcγRIIIA(F)
Summary of the method: as §1

[4] = molecular target: T7, human FcRIIIB protein (MednaBio, E1037) (human, UniProt O75015 17-200); assay: BLI
T7 construct: Bought; also called FcγRIIIB; FcgRIIIB
Summary of the method: as §1

[5] = molecular target: T8, human FcRI protein (MednaBio, E1031) (human, UniProt P12314 16-288, limits assumed); assay: BLI
T8 construct: Bought; loaded on anti-penta-HIS biosensors; also called FcγRI
Summary of the method: as §1

[6] = molecular target: T9, human FcRIIIA-V158 protein (MednaBio, E1035) (human, UniProt P08637 17-208); assay: BLI
T9 construct: Bought; also called FcγRIIIA(V); FcgRIIIA(V)
Summary of the method: as §1

[7] = molecular target: T10, human FcRn protein (MednaBio, E1032) (human, UniProt P55899 24-297; P61769 21-119); assay: BLI
T10 construct: Bought; assays at pH 6
Summary of the method: as §1

[8] = molecular target: T3, human FcγRIIA(R131) expressed on CHO …; assay: FACS, CHO cells expressing FcγRIIA(R131)
Procedure: (§2) For FACS analysis of the IgG mutants' binding to different FcγRs, FcγR overexpressing CHO cells were harvested using trypsin-EDTA and were suspended in cold staining buffer (3% BSA in PBS). Test IgG mutants, which were diluted in staining buffer, were added into the cells. The mixture was incubated 4° C. for 2 hours, and then washed twice with cold staining buffer and re-suspended in PE-labeled anti-human IgG followed by incubation at 4° C. for 2 hours. The mixture was washed twice with staining buffer and re-suspended in 2% PFA in PBS for FACS.

[9] = molecular target: T4, human FcγRIIC expressed on CHO cells; assay: FACS, CHO cells expressing FcγRIIC
Procedure: as §2

[10] = molecular target: T5, human FcγRIIA(H131) expressed on CHO …; assay: FACS, CHO cells expressing FcγRIIA(H131)
Procedure: FIGS. 1A-1W are charts showing binding activity of various IgG variants as indicated to different types of Fcγ receptors expressed on CHO-K1 cells at the various concentrations as indicated. The concentrations of each IgG variant, from left to right, are 0 μg/ml, 0.3 μg/ml, 1 μg/ml, 3 μg/ml, and 10 μg/ml in FIGS. 1A-1C, 1E-J, 1L-1M, 1P-1R, and 1T-1V. For FIGS. 1D, 1K, 10, 1S, and 1w the bars, from left to right, correspond to the following concentrations of IgG variant: 0.3 μg/ml, 1 μg/ml, 3 μg/ml, and 10 μg/ml.
as §2

T7 sequence (O75015 17-200 limits assumed): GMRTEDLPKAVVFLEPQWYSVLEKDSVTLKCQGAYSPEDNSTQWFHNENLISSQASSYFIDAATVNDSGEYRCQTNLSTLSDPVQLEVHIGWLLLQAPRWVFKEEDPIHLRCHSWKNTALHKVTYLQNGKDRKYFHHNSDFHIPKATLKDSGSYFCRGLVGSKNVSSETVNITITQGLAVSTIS
T9 sequence (P08637 17-208 F176V): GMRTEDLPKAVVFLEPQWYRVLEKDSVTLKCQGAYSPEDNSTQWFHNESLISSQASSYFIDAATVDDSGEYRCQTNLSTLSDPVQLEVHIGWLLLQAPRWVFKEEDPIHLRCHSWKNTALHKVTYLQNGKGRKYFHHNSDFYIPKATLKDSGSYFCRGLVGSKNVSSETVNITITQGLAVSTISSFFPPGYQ
T6 sequence (P08637 17-208 limits assumed): as the sequence (P08637 17-208 F176V) above, with V160F counted along it
T8 sequence (P12314 16-288 limits assumed): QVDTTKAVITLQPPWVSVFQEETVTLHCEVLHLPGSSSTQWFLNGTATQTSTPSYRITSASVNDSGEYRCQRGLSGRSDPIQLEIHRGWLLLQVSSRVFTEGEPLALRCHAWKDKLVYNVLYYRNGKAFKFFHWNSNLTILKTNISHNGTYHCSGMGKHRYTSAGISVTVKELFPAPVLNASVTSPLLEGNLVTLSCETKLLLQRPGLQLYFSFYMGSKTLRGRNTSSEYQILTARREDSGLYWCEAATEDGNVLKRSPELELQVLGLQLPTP

binding result [1]	binding result [2]	binding result [3]	binding result [4]	binding result [5]	binding result [6]	Kd [7]	koff [7]	kon [7]	binding result [8]	binding result [9]	binding result [10]	Kd [1]	koff [1]	kon [1]	Kd [5]	koff [5]	kon [5]	Binder
no binding (tested: 300 nM)	no binding (tested: 300 nM)	no binding (tested: 300 nM)	no binding (tested: 300 nM)	no binding (tested: 300 nM)	no binding (tested: 300 nM)	15 nM	0.0093 s⁻¹	620000 M⁻¹ s⁻¹	no binding (tested: 10 ug/ml)	no binding (tested: 10 ug/ml)	no binding (tested: 10 ug/ml)	–	–	–	–	–	–	anti-CD137 IgG1 with Fc variant G1m25 (antibody, copies: 2 + 2) heavy: EVQLVQSGAEVKKPGESLRISCKGSGYSFSTYWISWVRQMPGKGLEWMGKIYPGDSYTNYSPSFQGQVTISADKSISTAYLQWSSLKASDTAMYYCARGYGIFDYWGQGTLVTVSSASTKGPSVFPLAPSSKSTSGGTAALGCLVKDYFPEPVTVSWNSGALTSGVHTFPAVLQSSGLYSLSSVVTVPSSSLGTQTYICNVNHKPSNTKVDKKVEPKSCDKTHTCPPCPAPELLGPSVFLFPPKPKDTLMISRTPEVTCVVVDVSHEDPEEKFNWYVDGVEVHNAKTKPREEQYNSTYRVVSVLTVLHQDWLNGKEYKCKVSNKALPAPIEKTISKAKGQPREPQVYTLPPSREEMTKNQVSLTCLVKGFYPSDIAVEWESNGQPENNYKTTPPVLDSDGSFFLYSKLTVDKSRWQQGNVFSCSVMHEALHNHYTQKSLSLSPGK light: SYELTQPPSVSVSPGQTASITCSGDNIGDQYAHWYQQKPGQSPVLVIYQDKNRPSGIPERFSGSNSGNTATLTISGTQAMDEADYYCATYTGFGSLAVFGGGTKLTVLGQPKAAPSVTLFPPSSEELQANKATLVCLISDFYPGAVTVAWKADSSPVKAGVETTTPSKQSNNKYAASSYLSLTPEQWKSHRSYSCQVTHEGSTVEKTVAPTECS
–	no binding (tested: 300 nM)	no binding (tested: 300 nM)	no binding (tested: 300 nM)	–	no binding (tested: 300 nM)	17 nM	0.011 s⁻¹	650000 M⁻¹ s⁻¹	no binding (tested: 10 ug/ml)	–	no binding (tested: 10 ug/ml)	410 nM	0.2 s⁻¹	480000 M⁻¹ s⁻¹	240 nM	0.16 s⁻¹	640000 M⁻¹ s⁻¹	anti-CD137 IgG1 with Fc variant G1m28 (antibody, copies: 2 + 2) heavy: EVQLVQSGAEVKKPGESLRISCKGSGYSFSTYWISWVRQMPGKGLEWMGKIYPGDSYTNYSPSFQGQVTISADKSISTAYLQWSSLKASDTAMYYCARGYGIFDYWGQGTLVTVSSASTKGPSVFPLAPSSKSTSGGTAALGCLVKDYFPEPVTVSWNSGALTSGVHTFPAVLQSSGLYSLSSVVTVPSSSLGTQTYICNVNHKPSNTKVDKKVEPKSCDKTHTCPPCPAPELLGPSVFLFPPKPKDTLMISRTPEVTCVVVDVSHEDPEVKFNWYVDGVEVHNAKTKPREEQYNSTYRVVSVLTVLHQDWLNGKEYKCKVSNKAFPAPIEKTISKAKGQPREPQVYTLPPSREEMTKNQVSLTCLVKGFYPSDIAVEWESNGQPENNYKTTPPVLDSDGSFFLYSKLTVDKSRWQQGNVFSCSVMHEALHNHYTQKSLSLSPGK light: SYELTQPPSVSVSPGQTASITCSGDNIGDQYAHWYQQKPGQSPVLVIYQDKNRPSGIPERFSGSNSGNTATLTISGTQAMDEADYYCATYTGFGSLAVFGGGTKLTVLGQPKAAPSVTLFPPSSEELQANKATLVCLISDFYPGAVTVAWKADSSPVKAGVETTTPSKQSNNKYAASSYLSLTPEQWKSHRSYSCQVTHEGSTVEKTVAPTECS
–	no binding (tested: 300 nM)	no binding (tested: 300 nM)	no binding (tested: 300 nM)	no binding (tested: 300 nM)	no binding (tested: 300 nM)	16 nM	0.01 s⁻¹	650000 M⁻¹ s⁻¹	–	–	no binding (tested: 10 ug/ml)	410 nM	0.1 s⁻¹	260000 M⁻¹ s⁻¹	–	–	–	anti-CD137 IgG1 with Fc variant G1m27 (antibody, copies: 2 + 2) heavy: EVQLVQSGAEVKKPGESLRISCKGSGYSFSTYWISWVRQMPGKGLEWMGKIYPGDSYTNYSPSFQGQVTISADKSISTAYLQWSSLKASDTAMYYCARGYGIFDYWGQGTLVTVSSASTKGPSVFPLAPSSKSTSGGTAALGCLVKDYFPEPVTVSWNSGALTSGVHTFPAVLQSSGLYSLSSVVTVPSSSLGTQTYICNVNHKPSNTKVDKKVEPKSCDKTHTCPPCPAPELLGPSVFLFPPKPKDTLMISRTPEVTCVVVDVEHEDPEVKFNWYVDGVEVHNAKTKPREEQYNSTYRVVSVLTVLHQDWLNGKEYKCKVSNKALPAPIEKTISKAKGQPREPQVYTLPPSREEMTKNQVSLTCLVKGFYPSDIAVEWESNGQPENNYKTTPPVLDSDGSFFLYSKLTVDKSRWQQGNVFSCSVMHEALHNHYTQKSLSLSPGK light: SYELTQPPSVSVSPGQTASITCSGDNIGDQYAHWYQQKPGQSPVLVIYQDKNRPSGIPERFSGSNSGNTATLTISGTQAMDEADYYCATYTGFGSLAVFGGGTKLTVLGQPKAAPSVTLFPPSSEELQANKATLVCLISDFYPGAVTVAWKADSSPVKAGVETTTPSKQSNNKYAASSYLSLTPEQWKSHRSYSCQVTHEGSTVEKTVAPTECS

Reference: US20200392227A1 (LYVGEN BIOPHARMA, published 2020)
